Data reported in US5624659, “Method of treating brain tumors expressing tenascin” (Duke University, dated 1997).

Molecular target: tenascin on the tenascin-expressing human glioma cell line U-251 MG-C3 (glutaraldehyde-fixed) (human, UniProt P24821)
Assay: modified Scatchard analysis, 125I-labelled antibody on glutaraldehyde-fixed U-251 MG-C3 cells
Protocol: A modified Scatchard analysis was used to measure the binding affinity of labeled ch81C6. Serially diluted 125I-labeled antibody (200 μl, 1:2 dilution starting from 1600 ng/ml) was incubated in 48-well plates overnight at 37° C. with the antigen-positive human glioma cell line U-251 MG-C3 fixed in glutaraldehyde and the antigen-negative human osteogenic sarcoma cell line 2T. The cells were washed and solubilized with 2N NaOH, and the radioactivity was measured with a gamma counter. The data was analyzed in accordance with known techniques (Y. S. Lee et al., *Cancer Res.* 48, 559 (1988)).
The ch81C6 from high production transfectoma F9C11A5 was purified and further characterized. It was labeled with ^125I using the Iodogen method, and the percentage of immunoreactivity was determined by absorption with D-54 MG xenograft homogenate. The affinity constant was defined by Scatchard analysis using binding assay on a tenascin-expressing cell line U-251 MGC-3 as described above.

B1: chimeric 81C6 (mouse/human chimeric antibody, human IgG2, from transfectoma F9C11A5) (antibody, V domains shown)
VH: EVQLQQSGPELVKPGASVKMSCKASGYTFTSYVVHWVKQNPGQGLEWIGYINPFNDGTKYNENFKGKATLTSDRSSSTAYMELSSLTSEESAVYFCARDMGREGFAYWGQGTLVTVSA
VL: DIVMTQAAFSNPVTLGTSASISCRSSKSLLHSNGITYLYWYLQKPGQSPQLLIYQMSNLASGVPDRFSSSGSGTDFTLRISRVEAEDVGVYYCAQNLELPRTFGGGTKLEIK
**Q.** With B1 as the binder, how does the Ka read?
**A.** 1.67e+08 M⁻¹
